These results are taken from patent US20250197499A1 (STEALTH IO, published 2025).

Experiment [1] concerns the target T1, Recombinant human PD-L2-His tag (ACROBiosystems, #PD2-H5220) (human, UniProt Q9BQ51 20-219).
T1 construct: Bought protein; also called sPD-L2; human PD-L2-His tag protein; not shown: His tag
T1 sequence (looked up): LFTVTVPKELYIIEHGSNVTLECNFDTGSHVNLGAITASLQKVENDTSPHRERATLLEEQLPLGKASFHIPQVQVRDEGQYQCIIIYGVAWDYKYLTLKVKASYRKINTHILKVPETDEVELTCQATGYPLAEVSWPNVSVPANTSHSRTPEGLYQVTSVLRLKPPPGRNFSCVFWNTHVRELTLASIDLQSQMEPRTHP
Put plainly: Octet RED96e, PD-L2-His on HIS1K sensor. The protocol:
(§1) FIG. 4a is a graph of Octet binding studies on sPD-L2. Recombinant human PD-L2-His tag (ACROBiosystems, #PD2-H5220) was loaded to His-sensor (HIS1 K (Anti-Penta-His)) at 10 μg/ml and the binding of each construct was evaluated by Octet RED96e.
(§2) FIG. 4c is a graph depicting the KD values of anti-CD28/sPD-1 constructs on human PD-L2-His tag protein by Octet RED96e. The equilibrium dissociation constant (KD) is calculated as the ratio koff/kₒₙ (with koff:dissociation rates, and kₒₙ:association rates).
(§3) Anti-CD28/sPD-1 antibody fusion constructs were assessed for their ability to bind PD-1 ligands, PD-L1 and PD-L2 by Octet RED96e. Recombinant human PD-L1-His tag (ACROBiosystems, #PD1-H5229) or recombinant human PD-L2-His tag (ACROBiosystems, #PD2-H5220) were loaded to His-sensor (HIS1 K (Anti-Penta-His)) at 10 μg/ml. […] FIG. 3c is a summary of affinity (measured as Kd, M) for each construct on human PD-L1. […] FIG. 4c is a summary of affinity (measured as Kd, M) for each construct on human PD-L2.
On the technique in general: BLI is a label-free optical method that tracks binding on a fibre tip over time.

In experiment [2] the target is T2, Recombinant human PD-L1-His tag (ACROBiosystems, #PD1-H5229) (human, UniProt Q9NZQ7 19-238).
T2 construct: Bought protein; also called sPD-L1; human PD-L1-His tag protein; not shown: His tag
Put plainly: Octet RED96e, PD-L1-His on HIS1K sensor. The protocol:
(§4) FIG. 3a is a graph of Octet binding studies on sPD-L1. Recombinant human PD-L1-His tag (ACROBiosystems, #PD1-H5229) was loaded to His-sensor (HIS1K (Anti-Penta-His)) at 10 μg/ml and the binding of each construct was evaluated by Octet RED96e.
(§5) FIG. 3c is a graph depicting the KD values of anti-CD28/sPD-1 constructs on human PD-L1-His tag protein by Octet RED96e. The equilibrium dissociation constant (KD) is calculated as the ratio koff/kₒₙ (with koff:dissociation rates, and kₒₙ:association rates).
as §3

Experiment [3] deals with T1, Recombinant human PD-L2-His tag …. Description: Octet RED96e; PD-L2-His loaded at 10 µg/ml on HIS1K sensor; sample 55,6 nM. Here is the method:
as §1, §2, §3

Experiment [4] has as its target T2, Recombinant human PD-L1-His tag …. Description: Octet RED96e; PD-L1-His loaded at 10 µg/ml on HIS1K sensor; sample 277,8 nM. The protocol: as §4, §5, §3
In experiment [5] the target is T1, Recombinant human PD-L2-His tag …. Description: Octet RED96e; PD-L2-His loaded at 10 µg/ml on HIS1K sensor; sample 277,8 nM. The protocol: as §1, §2, §3
Experiment [6] concerns the target T2, Recombinant human PD-L1-His tag …. Put plainly: Octet RED96e; PD-L1-His loaded at 10 µg/ml on HIS1K sensor; sample 55,6 nM. Here is the method: as §4, §5, §3
In experiment [7] the target is T1, Recombinant human PD-L2-His tag …. Description: Octet RED96e; PD-L2-His loaded at 10 µg/ml on HIS1K sensor; sample 588,2 nM. The protocol:
as §1, §2, §3

The target is the same in experiment [8]. Put plainly: Octet RED96e; PD-L2-His loaded at 10 µg/ml on HIS1K sensor; sample 117,6 nM. The protocol: as §1, §2, §3
In experiment [9] the target is T2, Recombinant human PD-L1-His tag …. Put plainly: Octet RED96e; PD-L1-His loaded at 10 µg/ml on HIS1K sensor; sample 588,2 nM. Here is the method: as §4, §5, §3
For experiment [10], the target named is T3, Recombinant human sCD28 Fc-fusion protein (PeproTech, #310-34) (human, UniProt P10747 19-152).
T3 construct: Bought protein; also called soluble CD28; not shown: Fc part of the bought fusion; not described
Description: Octet RED96e; sCD28 Fc-fusion loaded at 2,5 µg/ml on protA sensor; sample 588,2 nM; control without CD28-binding Fab. Here is the method:
(§6) FIG. 5a is a graph of Octet binding studies on sCD28. Recombinant human sCD28 Fc-fusion protein (PeproTech, #310-34) was loaded to protA sensor at 2.5 μg/ml and the binding of each construct was evaluated by Octet RED96e.
(§7) FIG. 5c is a graph depicting the KD values of anti-CD28/sPD-1 constructs on human sCD28 Fc-fusion protein by Octet RED96e. The equilibrium dissociation constant (KD) is calculated as the ratio koff/kₒₙ (with koff:dissociation rates, and kₒₙ:association rates).
(§8) Anti-CD28/sPD-1 antibody fusion constructs were assessed for their ability to bind CD28 by Octet RED96e. Recombinant human sCD28 Fc-fusion protein (PeproTech, #310-34) was loaded to protA sensor at 2.5 μg/ml. […] FIG. 5c is a summary of affinity (measured as Kd, M) for each construct on human CD28.

Experiment [11] addresses T3, Recombinant human sCD28 Fc-fusion …. Description: Octet RED96e; sCD28 Fc-fusion loaded at 2,5 µg/ml on protA sensor; sample 117,6 nM; control without CD28-binding Fab. Here is the method:
as §6, §7, §8

In experiment [12] the target is T2, Recombinant human PD-L1-His tag …. Description: Octet RED96e; PD-L1-His loaded at 10 µg/ml on HIS1K sensor; sample 117,6 nM. Here is the method:
as §4, §5, §3

B1: bivalent anti-CD28/sPD-1 wt (bispecific antibody, human IgG1, kappa)
light: DIELTQSPASLAVSLGQRATISCRASESVEYYVTSLMQWYQQKPGQPPKLLIFAASNVESGVPARFSGSGSGTNFSLNIHPVDEDDVAMYFCQQSRKVPYTFGGGTKLEIKRTVAAPSVFIFPPSDEQLKSGTASVVCLLNNFYPREAKVQWKVDNALQSGNSQESVTEQDSKDSTYSLSSTLTLSKADYEKHKVYACEVTHQGLSSPVTKSFNRGEC
heavy: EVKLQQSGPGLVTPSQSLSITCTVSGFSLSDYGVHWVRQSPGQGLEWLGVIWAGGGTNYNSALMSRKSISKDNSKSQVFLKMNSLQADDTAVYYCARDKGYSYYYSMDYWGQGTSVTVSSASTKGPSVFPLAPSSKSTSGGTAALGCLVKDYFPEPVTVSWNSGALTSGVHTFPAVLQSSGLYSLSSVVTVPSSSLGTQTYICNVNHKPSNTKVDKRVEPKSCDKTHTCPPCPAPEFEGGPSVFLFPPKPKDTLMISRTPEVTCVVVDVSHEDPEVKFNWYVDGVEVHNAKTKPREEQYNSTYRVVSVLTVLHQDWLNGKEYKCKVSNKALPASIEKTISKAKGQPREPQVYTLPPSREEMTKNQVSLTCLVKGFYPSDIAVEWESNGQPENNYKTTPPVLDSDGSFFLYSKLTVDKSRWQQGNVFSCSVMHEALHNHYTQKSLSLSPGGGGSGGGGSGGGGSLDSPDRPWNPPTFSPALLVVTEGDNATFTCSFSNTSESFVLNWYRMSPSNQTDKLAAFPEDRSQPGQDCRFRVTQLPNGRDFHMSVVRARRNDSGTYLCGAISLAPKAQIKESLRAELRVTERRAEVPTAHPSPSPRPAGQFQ
notes: Two Fabs of clone 9.3 against CD28, two wild-type sPD-1 fragments; also called Bivalent anti-CD28/sPD-1 Wild type structure; bispecific protein complex A:B-C-X:D-C'-Y
For orientation: Kd means the concentration at which binding is half-saturated. The term koff denotes a measure of how fast the partners let go of each other. A word on the kon: it is the second-order rate constant of association. Turning to B1, the Kd is ~10 nM in [1]; ~10 nM in experiment [2]; 7.73 nM in [3]; 37.5 nM in experiment [4]; 18.1 nM in experiment [5]; 21.7 nM in experiment [6]. Besides, the dissociation rate constant (koff) stood at 0.00268 s⁻¹ in experiment [3], 0.0159 s⁻¹ in [4], 0.00314 s⁻¹ in experiment [5] and 0.0133 s⁻¹ in experiment [6]. Moreover, the on-rate (kon) in experiment [3] was determined as 347000 M⁻¹ s⁻¹; in [4], 423000 M⁻¹ s⁻¹; in experiment [5], 174000 M⁻¹ s⁻¹; in experiment [6], 614000 M⁻¹ s⁻¹.

B2: nonvalent (or dummy) Fc/sPD-1 mut (Fc fusion)
chain: DKTHTCPPCPAPEFEGGPSVFLFPPKPKDTLMISRTPEVTCVVVDVSHEDPEVKFNWYVDGVEVHNAKTKPREEQYNSTYRVVSVLTVLHQDWLNGKEYKCKVSNKALPASIEKTISKAKGQPREPQVYTLPPSREEMTKNQVSLTCLVKGFYPSDIAVEWESNGQPENNYKTTPPVLDSDGSFFLYSKLTVDKSRWQQGNVFSCSVMHEALHNHYTQKSLSLSPGGGGSGGGGSGGGGSLDSPDRPWNPPTFSPALLVVTEGDNATFTCSFSNTSESFVLNWYRMSPSNQTDKLAAFPEDRSQPGQDCRFRVTQLPNGRDFHMSVVRARRNDSGTYLCSAISLAPYIQIKESLRAELRVTERRAEVPTAHPSPSPRPAGQFQ
notes: also called Fc/sPD-1 mutated; Fc/sPD-1 mutant construct
As for B2, the dissociation constant (Kd) in experiment [7] stood at 0.0118 nM; in experiment [8] it was 1.56 nM; in experiment [9], 0.00629 nM; in [10], 17.8 nM; in experiment [11], 2950 nM; in experiment [12], 2.24 nM. Moreover, the off-rate (koff) in experiment [7] was found to be 5.99e-07 s⁻¹; in experiment [8], 0.000461 s⁻¹; in experiment [9], 6.93e-07 s⁻¹; in experiment [10] it was 0.000107 s⁻¹; in [11] it was 0.00204 s⁻¹; in experiment [12], 0.00132 s⁻¹. Besides, the kon in experiment [7] was determined as 50700 M⁻¹ s⁻¹; in experiment [8], 295000 M⁻¹ s⁻¹; in [9], 110000 M⁻¹ s⁻¹; in [10], 6000 M⁻¹ s⁻¹; in [11], 692 M⁻¹ s⁻¹; in experiment [12] it was 588000 M⁻¹ s⁻¹.
